Measured values from patent US20190071490A1 (BETH ISRAEL DEACONESS MEDICAL CENTER, published 2019).
Changes are numbered by the printed parent chain. Numbers in names are those of the source. Values belong to the binder of their own block, whether it stands above or below them. Ends that are not written are not given here.

Key:
[1] = molecular target: antibody G1 Fab fragment; assay: Biacore competition: G1 Fab (50 nM) pre-incubated with competing peptide, flowed over human α-CGRP on SA chip
Excerpt: (§1) Y axis represents percentage of binding blocked by the presence of the competing peptide compared with the binding in the absence of the competing peptide.
(§2) All these peptides are amidated at the C-terminus.

[2] = molecular target: T1, rat α-CGRP (1-37) (rat, C-terminal amide; N-terminal biotin when captured on the SA chip); assay: Biacore, 37°C, Fab over CGRP on SA chip
T1 construct: also called rat α (1-37); α-rat
T1 peptide: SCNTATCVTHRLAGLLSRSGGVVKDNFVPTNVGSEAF
Description: (§3) Biacore assay for affinity determination. […] All Biacore assays were conducted in HBS-EP running buffer (10 mM HEPES pH 7.4, 150 mM NaCl, 3 mM EDTA, 0.005% v/v polysorbate P20). CGRP surfaces were prepared by diluting the N-biotinylated CGRP to a concentration of less than 0.001 mg/mL into HBS-EP buffer and injecting it across the SA sensor chip using variable contact times. […] Samples were typically injected for 1 minute at 100 μL/min and dissociation times of at least 10 minutes were allowed. […] An entire titration series (typically generated in duplicate) was fit globally to a 1:1 Langmuir binding model using the BIAevaluation program. This returned a unique pair of association and dissociation kinetic rate constants (respectively, kₒₙ and koff) for each binding interaction, whose ratio gave the equilibrium dissociation constant (KD=koff/kₒₙ). […]

[3] = molecular target: T2, human α-CGRP 1-37 (WT) (human, C-terminal amide; N-terminal biotin when captured on the SA chip; 125I-labelled in the radioligand assay); assay: Biacore, 37°C, Fab over CGRP on SA chip
T2 construct: also called α-human
T2 peptide: T1 peptide with S1A, N3D, D25N, E35K
Description: as §3

[4] = molecular target: antibody G1 Fab fragment; assay: Biacore competition: G1 Fab (50 nM) pre-incubated 1 h with 10 µM competing peptide, then flowed over N-biotinylated human α-CGRP on SA chip; percent of binding to chip-bound human α-CGRP blocked
Excerpt: as §1, §2
Target sequence in this assay (VH, as listed by the source, chain 1 of 2): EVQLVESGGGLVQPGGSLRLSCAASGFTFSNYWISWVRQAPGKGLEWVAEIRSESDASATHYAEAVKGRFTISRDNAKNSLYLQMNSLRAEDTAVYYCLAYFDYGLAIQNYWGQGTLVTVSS
Target sequence in this assay (VL, as listed by the source, chain 2 of 2): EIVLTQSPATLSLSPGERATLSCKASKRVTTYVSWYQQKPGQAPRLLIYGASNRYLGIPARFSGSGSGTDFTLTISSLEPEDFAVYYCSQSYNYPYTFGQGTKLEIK

B1: Human adrenomedullin (1-52) (peptide)
peptide: YRQSMNNFQGLRSFGCRFGTCTVQKLAHQIYQFTDKDKDNVAPRSKISPQGY-NH2
modifications: ends and bridges not checked
binding result [1]: no binding (tested: 10 µM)

Binder: KCNTATCATQRLANFLVHSSNNFGAILSSTNVGSNTY-NH2 (ends and bridges not checked) [Human amylin (1-37)]
binding result [1]: no binding (tested: 10 µM)

Binder: ACDTATCVTHRLA-OH (ends and bridges not checked) [human α-CGRP 1-13-COOH]
binding result [1]: no binding (tested: 10 µM)

B3: G1 variant M78 Fab (Fab, V domains shown)
VH: EVQLVESGGGLVQPGGSLRLSCAASGFTFSNYWISWVRQAPGKGLEWVAEIRSKSDNTATHYAEAVKGRFTISRDNAKNSLYLQMNSLRAEDTAVYYCTVYFDYGLAIQNYWGQGTLVTVSS
VL: EIVLTQSPATLSLSPGERATLSCKASKNVSTYVSWYQQKPGQAPRLLIYAASNRYTGIPARFSGSGSGTDFTLTISSLEPEDFAVYYCSQSYNYPYTFGQGTKLEIK
notes: Fab; constant domains as m1
Kd [2]: 9280 nM
koff [2]: 0.167 s⁻¹
Kd [3]: 8.19 nM
koff [3]: 0.00131 s⁻¹

B6: G1 variant M71 Fab (Fab, V domains shown)
VH: B3 VH with N57Y, T58S
VL: B3 VL with S30G, A50G, T56I
notes: Fab; constant domains as m1; printed L561 read as L56I
Kd [2]: 118 nM
koff [2]: 0.00212 s⁻¹
Kd [3]: 8 nM
koff [3]: 0.00128 s⁻¹

B7: G1 variant M79 Fab (Fab, V domains shown)
VH: B3 VH with N57P, T58S
VL: B3 VL
notes: Fab; constant domains as m1
Kd [2]: 10600 nM
koff [2]: 0.19 s⁻¹
Kd [3]: 8.06 nM
koff [3]: 0.00129 s⁻¹

B8: G1 variant M84 Fab (Fab, V domains shown)
VH: B3 VH with K54N, T58S
VL: B3 VL with S30V, A50G, A51H
notes: Fab; constant domains as m1
Kd [2]: 978 nM
koff [2]: 0.0176 s⁻¹
Kd [3]: 6.75 nM
koff [3]: 0.00108 s⁻¹

B11: G1 variant M80 Fab (Fab, V domains shown)
VH: B3 VH with T58V
VL: B3 VL with A50G, T56I
notes: as for B6
Kd [2]: 5520 nM
koff [2]: 0.0993 s⁻¹
Kd [3]: 13.1 nM
koff [3]: 0.00209 s⁻¹

B15: G1 variant M75 Fab (Fab, V domains shown)
VH: B3 VH with N57V, T58S
VL: B3 VL with S30G, A50G, T56S
notes: Fab; constant domains as m1
Kd [2]: 1040 nM
koff [2]: 0.0187 s⁻¹
Kd [3]: 7.25 nM
koff [3]: 0.00116 s⁻¹

B21: human α-CGRP 19-37-COOH (peptide)
peptide: SGGVVKNNFVPTNVGSKAF-OH
notes: also called 19-37 (not amidated at the C-terminus)
% Binding Blocked [4]: 83.3%

Binder: SGGVVKNNFVPTNVGSKAA-NH2 (the entry already carries F37A) [human α-CGRP F37A (19-37)]
% Binding Blocked [4]: 91.7%

Binder: CGNLSTCMLGTYTQDFNKFHTFPQTAIGVGAP-NH2 (ends and bridges not checked) [Human calcitonin (1-32)]
binding result [1]: no binding (tested: 10 µM)

Binder: ACDTATCVTHRLAGLLSRS-OH (ends and bridges not checked) [human α-CGRP 1-19-COOH]
binding result [1]: no binding (tested: 10 µM)

B22: human α-CGRP 19-36 (peptide)
peptide: SGGVVKNNFVPTNVGSKA-OH
notes: also called 19-36-COOH; peptide fragment 19-36
% Binding Blocked [4]: 0.6%
binding result [1]: no binding (tested: 10 µM)

Results, then the binder that gave them:

Kd [2]: 284 nM
koff [2]: 0.00511 s⁻¹
Kd [3]: 3.25 nM
koff [3]: 0.00052 s⁻¹
B2: G1 variant M66 Fab (Fab, V domains shown)
VH: B3 VH with N57E, T58S
VL: B3 VL with S30G, A50G, T56I
notes: as for B6

Kd [2]: 167 nM
koff [2]: 0.003 s⁻¹
Kd [3]: 1.59 nM
koff [3]: 0.000255 s⁻¹
B4: G1 variant M73 Fab (Fab, V domains shown)
VH: B3 VH with T58Y, E64D
VL: B3 VL with S30G, A50G, T56S
notes: Fab; constant domains as m1

Kd [2]: 95 nM
koff [2]: 0.00171 s⁻¹
Kd [3]: 5.13 nM
koff [3]: 0.00082 s⁻¹
B5: G1 variant M67 Fab (Fab, V domains shown)
VH: B3 VH with N57F, T58S
VL: B3 VL with S30G, A50G, T56I
notes: as for B6

Kd [2]: 238 nM
koff [2]: 0.00429 s⁻¹
Kd [3]: 3.06 nM
koff [3]: 0.00049 s⁻¹
B9: G1 variant M81 Fab (Fab, V domains shown)
VH: B3 VH with T58E
VL: B3 VL with A50G, T56S
notes: Fab; constant domains as m1

binding result [2]: no binding
Kd [3]: 5.83 nM
koff [3]: 0.000933 s⁻¹
B10: G1 variant M83 Fab (Fab, V domains shown)
VH: B3 VH with T58M, H61F
VL: B3 VL with S30V, A50G, A51H
notes: Fab; constant domains as m1

Kd [2]: 388 nM
koff [2]: 0.00699 s⁻¹
Kd [3]: 5.48 nM
koff [3]: 0.000877 s⁻¹
B12: G1 variant M82 Fab (Fab, V domains shown)
VH: B3 VH with K54E, T58S
VL: B3 VL with S30V, A50G, A51H
notes: Fab; constant domains as m1

Kd [2]: 376 nM
koff [2]: 0.00676 s⁻¹
Kd [3]: 2.68 nM
koff [3]: 0.000428 s⁻¹
B13: G1 variant M68 Fab (Fab, V domains shown)
VH: B3 VH with T58D, E64D
VL: B3 VL with S30G, A50G, T56I
notes: as for B6

Kd [2]: 219 nM
koff [2]: 0.00395 s⁻¹
Kd [3]: 2.5 nM
koff [3]: 0.0004 s⁻¹
B14: G1 variant M72 Fab (Fab, V domains shown)
VH: B3 VH with N57A, T58S
VL: B3 VL with S30G, A50G, T56S
notes: Fab; constant domains as m1

Kd [2]: 335 nM
koff [2]: 0.00603 s⁻¹
Kd [3]: 3.73 nM
koff [3]: 0.000597 s⁻¹
B16: G1 variant M74 Fab (Fab, V domains shown)
VH: B3 VH with N57S, T58S
VL: B3 VL with S30G, A50G, T56S
notes: Fab; constant domains as m1

Kd [2]: 101 nM
koff [2]: 0.00181 s⁻¹
Kd [3]: 4.58 nM
koff [3]: 0.000733 s⁻¹
B17: G1 variant M69 Fab (Fab, V domains shown)
VH: B3 VH with T58E
VL: B3 VL with S30G, A50G, T56I
notes: as for B6

Kd [2]: 337 nM
koff [2]: 0.00607 s⁻¹
Kd [3]: 3.49 nM
koff [3]: 0.000559 s⁻¹
B18: G1 variant M70 Fab (Fab, V domains shown)
VH: B3 VH with N57S, T58S
VL: B3 VL with S30G, A50G, T56I
notes: as for B6

Kd [2]: 64.4 nM
koff [2]: 0.00116 s⁻¹
Kd [3]: 2.28 nM
koff [3]: 0.000364 s⁻¹
B19: G1 variant M76 Fab (Fab, V domains shown)
VH: B3 VH with K54E, N57G, T58S
VL: B3 VL
notes: Fab; constant domains as m1

Kd [2]: 794 nM
koff [2]: 0.0143 s⁻¹
Kd [3]: 2.98 nM
koff [3]: 0.000477 s⁻¹
B20: G1 variant M77 Fab (Fab, V domains shown)
VH: B3 VH with N57D, T58S
VL: B3 VL
notes: Fab; constant domains as m1
